Experiment: label from the status in PepcDB records
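Also: failed if final PepcDB status was selected cloned or expressed and not failed if soluble or beyond.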

| Sequence | protein production |
| --- | --- |
| MGERGVEMRLRIRFESAECEVELYEEWAPETVRAIADALPIKSTANRWGDEIYFTTQVAVEKEENSKDVVELGDVAYWIPGKAICLFFGKTPISDDKIRPASAVNVIGRIVNSMEGLKGVADGESVVVERA | not failed |
| MGERIALATREGAPLAAYHAPPLEARRGGIVMLHAIWGVTPHLRQLSDSLAEQGYEVMLPSLMDAADAAFPVEDTTPSILDARMAMGERTGWGASTLPRVQACIDALNGPVYAMGFCYGGTTAWLAACRCEGLSAVSAFYGGDIAAYRDETPKVPTILHFGKTDTMIPLSAVDAVRDRHPDLPVYLYDAGHAFVAPSGHHPDSARLALLRTLQLFQR | failed |
| MGESGLTNEIDELHEEVTAVSAPGVKPPAQAGRRNIWLKVLISATAFYILLLVALLVTGNPNLFPSLVMVGNFTVPVAYVAFLYERKNFSRLKMPIVSLAFLYGGLVGIIATSFIGPLFITQFNPGDILAVGLVEEFAKILGVVVIARRRRHVLEMDGLILGAAVGMGFAALESTGYAFTAFLISNGSISAVLEVTLFRGLLAPLGHGTWTAILASVLFRESRDCCFRVNLRVIGAYLLVSILHAMWNGLSLVLAPFTGLGLGAIITWALVGFIGLYVLWRRWREAVRLKPVLLPERENV | failed |
| MGETVVRDAVTIGKPAEQLYAVWRDLPGLPLLMTHLRSVEVLDDKRSRWTVEAPAPLGTVSWEAELTADEPGKRIAWRSLPGARIENSGEVLFRPAPGARGTEVVVRLTYRPPGGSAGAVIARMFNQEPSQQLRDDLMRFKREQELGLEHHHHHH | not failed |
| MGFEVRRRLSVADTVTLFNAVVGFVAGAIAFTDPHLAARLILLAVIADAIDGIVARNGDSSAVGPLLDSVTDVVSFGATPSLFLYVLLTDAYGGIESAHPAVFVGLALLASAYVVCSIVRTAFYSTYFDSPDERPGMPNTLGSIIIATAYLSGITNPLVLSVGALGLSLAMIAPFDYPKPGPKHAVPMGVVQAVAVVAPAALFRAGPRAMLAIALLFFALGPWFYPGE | failed |
| MGFKCGIVGLPNVGKSTLFNALTKAGIEAANFPFCTIEPNTGVVPMPDPRLDQLAEIVKPQRTLPTTMEFVDIAGLVKGASKGEGLGNQFLTNIRETEAIGHVVRCFENDNIIHVSGKVNPADDIEVINTELALADLDTCERAIHRVQKKAKGGDKDAKAELAVLEKCLPQLENAGMLRALDLSAEEKAAIRYLSFLTLKPTMYIANVNEDGFENNPYLDQVREIAAKEGSVVVPVCAAVEADIAELDDEERDEFMQELGLEEPGLNRVIRAGYKLLNLQTYFTAGVKEVRAWTIPVGATAPQAAGKIHTDFEKGFIRAQTISFEDFITYKGEQGAKEAGKMRAEGKDYIVKDGDVMNFLFNV | not failed |
| MGFLQPRLPDIDLAEWSQGSRSQKIRPMAQHWAEVGFGTPVLLHLFYVAKILLYVLVGWLIVLTTKGIDGFTDAAAWYAEPIVFEKVVLYTMLFEVIGLGCGFGPLNNRFFPPMGSILYWMRFGTIRLPPWPDRVPWTRGTKRKPVDVALYALLVMMLLSALFTDGAGPIPELGTTVGLLPAWQIVLILLLLGVLGLRDKVIFLAARGEVYATLTVTFLFGRLNGIDMIVAAKLVFLVIWIGAATSKLNRHFPFVISTMMSNNPLFRPRFIKRMFFKKFPGDLRPGLLSRIVAHVSTVIEMCVPVVLFVAHGGWPTVVAATIMVCFHLGILTAIPMGVPLEWNVFMIFGVLSLFVGHACLGLADVKNPVPLAILIAVVAGIVIAGNVFPRKISFLAAMRYYAGNWDTTLWCIKPSAEDKINRGIVAIASMPAAQLERFYGKDRAQIPMYLGYAFRAMNSHGRALFTLAHRAMAGHDEDDYVITDGERVCSTAVGWNFGDGHLHNEQLIAAMQQRCGFQPGEVRVVLLDAQPIHRQTQEYRLVDAATGEFERGYVRVADMVNRQPWDDDVPVHVLPG | failed |
| MGFSDAGIYLSDPNNLCQTELGFFHEPSLGFSDQSDPQNEFHITPPIYQELQDQDLEPKSQETNNCSRKEGATVKKEEEEEDDYCKTPTRSDQILSAMPRICPPAPRKPKRVPSRSLKVRNSYRSKRMIILNVSREIDCLFNPTSLCNKIKKARYI | failed |
| MGFTTDKIRTIAVAGHGQSGKTSLVEHLLYVSGLIAKAESVDSGKTVTDYSQEEIDRKISIYSTLVNLQKDDKLINIWDTPGASDFIGEVIAAFRSSEAALIVLDGRSGVQIETIKYWRDLDRRNKPRLVFANKMDEARADFDNCIADVKKQFQVDVFPVSFPMGTGDNFKGVVDVLHGKAYKIEDGKEVETEIPAEYQDKYKDALEVLAGAAAEGDEELLVKFIDEGELSPEEISRGLTLAMADNRIVPLFAGSAINNSGLNSLLRFISEILPSPEGALERGVTKEGEEISVKLDSSAPLSAIVVKTSNDQFSGRLSYVKVITGTLSADSEVYNLREEKKERVGKIYKTLGKKLTEVKEIAAGDIGVLVKLTSTKTNDTLAASADVIPFVRLRTPEPIYSLAVSAIDKKNDDKVSEQLFKACEEDMTLSFAFNAETKQNVLSGMGDLHTSIVLDKVKNQSKIEIQTSIPRIAYRETIQRKSQAEYTHKKQSGGHGQFGRVVLAIEPLPRGEKYKFTNAVFGGAISKGYIPGVEKGVIEAMEKGVSAGYPVVDVAVTVLDGKEHPVDSSEMAFKIAARNAFKDAMRNAGPILLEPIMNLTVFVETSYLGDIMSDLSSRRGRILGQSSPASGIEEIRAQVPHKELLRYAIDLRSMTSGTGSFEMSFDHYDPISGKIADEIIAEAKAFMEEQEE | failed |
| MGGGPALNRDSSRHARPFISSPVKTLAIIPAFNEAQAIGPVLGDLPDGWVDEVVVVNNASTDATKANARAAGATVVDEPQQGYGAACLRGIAYAETRQPDVVVFLDGDYSDHPEELPRLVEPIAADEADFVVGSRIRGDAEPGALLPQAQVGNRFACSLMARLWGADYTDLGPFRAIRFRDLLALDMQDETFGWTIEMQIRALEAGLRVEEVPVSYRRGIGPSKITGTLSGTVKASAKILWTIGRMAATTHRRAPRLRERVDRARTDAPTPNPGGLEHHHHHH | failed |
| MGGGRQILHTLEQDVYFSHAHRVEIPASVTAHLFYQHFGYRPKPGGIYPDDEGLYRLEKFPHESFH | failed |
| MGGHFWPPEPYTVFMWGSPWEADSPRVKLRGREKGRQTEGGAFPLVSSALSGDPRFFSPTTPPAEPIVVRLKEVRLQRDDFEILKVIGRGAFSEVAVVKMKQTGQVYAMKIMNKWDMLKRGEVSCFREERDVLVNGDRRWITQLHFAFQDENYLYLVMEYYVGGDLLTLLSKFGERIPAEMARFYLAEIVMAIDSVHRLGYVHRDIKPDNILLDRCGHIRLADFGSCLKLRADGTVRSLVAVGTPDYLSPEILQAV | failed |
| MGGIYRLSLKSTEATAERLSCDTRCNYEDRDLAYSPDGRWLAIARRFSNISEDIFIRDLASAHEKRLTQGLEDIRGLSWTPDSQALVFATEDSGSSNGFTLDINTAQIRSLDVEGMSYPSSVSAEGELVYHQYHRQFQMAYFSLGDKVPGSLFPLLYSGVSHRNPDYSPEAKRIVFVSSETGYNEIWTSDINGQKLEQLTQLKSRVAYPRWSPDGSRIAFIAPDDRNEGNRIFILDLTNKNITALASSYHNHGRPSWNWQGTAVLASTADGITEFYLDNRAPRVISSLSMAVGFAKSATELVFSRDGENGLWQINLTQPEHVEQLISTDAFRAGNNWVLTASGVYFKSSNGHEQLLNYWEASSQQVTSLLRVPRSSLSGFGSMTYIPEANRLVMTLDGFPQRDIILLKHKLLKLEHHHHHH | failed |
| MGGKLVSFIRSRLEIVQNIAAEDEGCKKAYYCMGSPLFALNAERMENNLVTLSGGISINKQLQKKGKPGVNVSPAFINEHNPEAIFISSFLSRPLNEFYELCQKYGIHADAVKKRQVYAVPAAWDFGNPRWILGLLYITDKLHPGKLEHHHHHH | failed |
| MGGNRQQEIASGCCLVAEQHDQVVAYASYQPTGLLGQPLLTYLCVAPAMRGQGIAKQLVETIQGQARGRMLLSSTEDWCLASQKIFTDLGWRKIGALAGVNKDGSTEYFYAVDLNH | failed |
| MGGSNMKLDFSVAVHSILYLDAHRDSKVASRELAQSLHLNPVMIRNILSVLHKHGYLTGTVGKNGGYQLDLALADMNLGDLYDLTIPPTISYARFITGPSKTDEQADQSPIAANISETLTDLFTVADRQYRAYYHQFTMADLQADLNHHGTFLQHEQDSES | not failed |
| MGHHHHHHSHESVVPARMAEMARCIRERDFPSFAQLTMKDSNQFHATCLDTFPPISYLNAISWRIIHLVHRFNAHHGDTKVAYTFDAGPNAVIFTLDDTVAEFVAAVWHGFPPGSNGD | failed |
| MGHHHHHHSHGFNKFGGPRDQGSRHDSEQDNSDNNTIFVQGLGENVTIESVADYFKQIGIIKTNKKTGQPMINLYTDRETGKLKGEATVSFDDPPSAKAAIDWFDGKEFSGNPIKVSFAT | failed |
| MGHHHHHHSHHTTEAKNDLRVGGRFVSKMEAKDGSFGFDFGGTYNKVRLYEFISYIMDDDRSVEITFKPEKDKTYIVESFEAEKSNPIDLQQKGWQAILDNFKKYVEENKLRGREK | failed |
| MGHHHHHHSHMANGTAGTKVALRKTKQAAEKISADKISKEALLECADLLSSALTEPVPNSQLVDTGHQLLDYCSGYVDCIPQTRNKFAFREAVSKLELSLQELQVSSAAAGVPGTNPVLNNLLSCVQEISDVVQR | failed |
| MGHHHHHHSHMATGQDRVVALVDMDCFFVQVEQRQNPHLRNKPCAVVQYKSWKGGGIIAVSYEARAFGVTRSMWADDAKKLCPDLLLAQVRESRGKANLTKYREASVEVMEIMSRFAVIERASIDEAYVDLTSAVQERLQKLQGQPISADLLPSTYIEGLPQGPTTAEETVQKEGMRKQGLFQWLDSLQIDNLTSPDLQLTVGAVIVEEMRAAIERETGFQCSAGISHNKVLAKLACGLNKPNRQTLVSHGSVPQLFSQMPIRKIRSLGGKLGASVIEILGIEYMGELTQFTESQLQSHFGEKNGSWLYAMCRGIEHDPVKPRQLPKTIGCSKNFPGKTALATREQVQWWLLQLAQELEERLTKDRNDNDRVATQLVVSIRVQGDKRLSSLRRCCALTRYDAHKMSHDAFTVIKNCNTSGIQTEWSPPLTMLFLCATKFSASAP | failed |
| MGHHHHHHSHMDEQSVESIAEVFRCFICMEKLRDARLCPHCSKLCCFSCIRRWLTEQRAQCPHCRAPLQLRELVNCRWAEEVTQQLDTLQLCSLTKHEEN | not failed |
| MGHHHHHHSHMGEIESYCNKELGPLPTKAPTLSKNVLDLFSLKGKVASVTGSSGGIGWAVAEAYAQAGADVAIWYNSHPADEKAEHLQKTYGVHSKAYKCNISDPKSVEETISQQEKDFGTIDVFVANAGVTWTQGPEIDVDNYDSWNKIISVDLNGVYYCSHNIGKIFKKNGKGSLIITSSISGKIVNIPQLQAPYNTAKAACTHLAKSLAIEWAPFARVNTISPGYIDTDITDFASKDMKAKWWQLTPLGREGLTQELVGGYLYLASNASTFTTGSDVVIDGGYTCP | failed |
| MGHHHHHHSHMGKKLLVLDVDYTLFDHRSCAETGVELMRPYLHEFLTSAYEDYDIVIWSATNMKWIEAKMKELGVSTNANYKITFMLDSAAMITVHTPRRGLIDVKPLGVIWGKFSEFYSKKNTIMFDDIGRNFLMNPQNGLKIRPFMKAHLNRDKDKELLKLTQYLKEIAKLDDFLDLNHKY | failed |
| MGHHHHHHSHMGRCYNNIVIDASIEAVWQQIGNFHDMSWAKGVITSLVKVGPASGTEVGAKRILNDAIHETLVSLDSSNYTFTYSIDDGPDAIAKSAVDNYLGMVNLSESSTGVLVEWSSSFTSDNEKAVTEFCDP | failed |
| MGHHHHHHSHMIDSIRVEGFRGLKELELSSLRRINVIVGRNNSGKSTLLEALSLFLGSSDPGTFGNVLHEILIWRGWYGIQTVDDLFYNGGDSFSISSTGKTLEALNSKHSLEFKLNGEPFYKIDRESIRRLASQAVLLARFSPKENFEFLTPLTFRRFGYAESLYSYAYERKVVKDSIKVLNEAYPEVEGFSPLLKEDNWVLYVETKYGVYPYYLMGEGFKSAMIISFLSSLLRDGVLLIDSAEAFHHP | failed |

— a protein production outcome set (Wang et al. 2014)
